Reference: patent publication US20210024646A1 (FUDAN UNIVERSITY, published 2021)

T1: CD73 on the surface of human tumor cells (human, UniProt P21589 27-549)
T1 construct: whole, on cells; One entry for endogenous CD73 on all cell lines; the cell line is named under assay or readout; also called CD73 receptors on the surface of tumor cells; tumor cell CD73
T1 sequence (looked up): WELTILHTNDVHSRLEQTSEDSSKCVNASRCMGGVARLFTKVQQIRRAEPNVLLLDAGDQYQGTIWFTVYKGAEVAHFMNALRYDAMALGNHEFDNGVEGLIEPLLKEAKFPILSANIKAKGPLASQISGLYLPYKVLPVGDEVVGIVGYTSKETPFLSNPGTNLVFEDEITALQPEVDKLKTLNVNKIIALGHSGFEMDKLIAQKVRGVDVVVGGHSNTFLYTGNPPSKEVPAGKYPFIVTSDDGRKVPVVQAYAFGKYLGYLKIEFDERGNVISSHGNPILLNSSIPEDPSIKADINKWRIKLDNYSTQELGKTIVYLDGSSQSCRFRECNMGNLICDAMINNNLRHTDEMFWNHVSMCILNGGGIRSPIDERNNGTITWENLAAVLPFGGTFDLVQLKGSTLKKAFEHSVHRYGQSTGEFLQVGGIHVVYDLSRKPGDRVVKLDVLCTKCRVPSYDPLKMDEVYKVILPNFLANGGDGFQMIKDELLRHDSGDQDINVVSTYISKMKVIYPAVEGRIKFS

T2: extracellular domain of human CD73 protein (CD73-ECD), C-terminus polyhistidine-tagged (human, UniProt P21589 27-547)
T2 construct: also called Human CD73-ECD; human recombinant CD73 enzyme (CD73 extracellular domain)
T2 sequence: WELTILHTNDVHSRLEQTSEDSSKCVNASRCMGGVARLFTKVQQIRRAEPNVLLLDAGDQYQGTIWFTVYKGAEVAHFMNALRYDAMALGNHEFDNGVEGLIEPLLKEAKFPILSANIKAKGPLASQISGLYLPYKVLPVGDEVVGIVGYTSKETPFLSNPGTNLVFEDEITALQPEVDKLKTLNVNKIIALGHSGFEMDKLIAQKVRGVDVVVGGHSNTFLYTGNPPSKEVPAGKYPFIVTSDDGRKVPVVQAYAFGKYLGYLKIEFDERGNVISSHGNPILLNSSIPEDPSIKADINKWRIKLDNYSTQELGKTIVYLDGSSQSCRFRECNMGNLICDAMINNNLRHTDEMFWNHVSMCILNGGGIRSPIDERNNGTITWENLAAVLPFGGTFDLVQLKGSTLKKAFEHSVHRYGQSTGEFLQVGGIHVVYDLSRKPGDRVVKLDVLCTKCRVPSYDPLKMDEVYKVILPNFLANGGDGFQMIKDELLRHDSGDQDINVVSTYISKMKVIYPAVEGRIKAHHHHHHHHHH


Assays:
[1] = target: T1, CD73 on the surface of human tumor cells; experiment: flow cytometry, MDA-MB-231 cells
[2] = target: T2, extracellular domain of human CD73 …; experiment: ELISA, coated CD73-ECD
[3] = target: T1, CD73 on the surface of human tumor cells; experiment: flow cytometry, NCI-H1299 cells

Binder	binding result [1]	binding result [2]	binding result [3]	EC50 [1] [nM]
Hu001c-22 (antibody, V domains shown, Humanized) VH: QVQLVQSGAEVKKPGASVKVSCKASGYTFTNYYIYWVKQRPGQRLEWIGWIYPGNLNIKYNEKFKGRVTITADKSASTAYMELSSLRSEDTAVYYCARDDNYAWFAYWGQGTLVTVSS VL: DIQMTQSPSSLSASVGDRVTITCKASQDVSTAVAWYQQKPGKAPKLLIYWTNTRHTGVPSRFSGSGSGTDHTLTISSLQPEDFATYYCQQHYSTPFTFGQGTKLEIK	binds	binds	–	–
Hu001c-23 (antibody, V domains shown, Humanized) VH: QVQLVQSGAEVKKPGASVKVSCKASGYTFTNYYIYWVKQRPGQGLEWIGWIYPGNLNIKYNEKFKGRVTITADKSASTAYMELSSLRSEDTAVYYCARDDNYAWFAYWGQGTLVTVSS VL: DIQMTQSPSSLSASVGDRVTITCKASQDVSTAVAWYQQKPGKAPKLLIYWTNTRHTGVPSRFSGSGSGTDHTLTISSLQPEDFATYYCQQHYSTPFTFGQGTKLEIK	binds	binds	–	–
Hu001c-24 (antibody, V domains shown, Humanized) VH: QVQLVQSGAEVKKPGASVKVSCKTSGYTFTNYYIYWVKQRPGQGLEWIGWIYPGNLNIKYNEKFKGRVTITADKSASTAYMELSSLRSEDTAVYYCARDDNYAWFAYWGQGTLVTVSS VL: DIQMTQSPSSLSASVGDRVTITCKASQDVSTAVAWYQQKPGKAPKLLIYWTNTRHTGVPSRFSGSGSGTDHTLTISSLQPEDFATYYCQQHYSTPFTFGQGTKLEIK	binds	binds	–	–
Hu001c-25 (antibody, V domains shown, Humanized) VH: QVQLVQSGAEVKKPGASVKVSCKASGYTFTNYYIYWVRQAPGQRLEWIGWIYPGNLNIKYNEKFKGRVTITADKSASTAYMELSSLRSEDTAVYYCARDDNYAWFAYWGQGTLVTVSS VL: DIQMTQSPSSLSASVGDRVTITCKASQDVSTAVAWYQQKPGKSPKLLIYWTNTRHTGVPSRFSGSGSGTDHTLTISSLQPEDFATYYCQQHYSTPFTFGQGTKLEIK	binds	binds	–	–
Hu002c-7 (antibody, V domains shown, Humanized) VH: QVQLVQSGAEVKKPGASVKVSCKASGYTLTSYWMHWVRQAPGQGLEWIGEINPSQGRSNYNEKFKSRVTLTVDRSTSTVYMELSSLRSEDTAVYYCARRGVSGNYFDYWGQGTLVTVSS VL: DIQMTQSPSSLSASVGDRVTITCKASQDINTYLSWFQQKPGKSPKSLIYRSNILVSGVPSRFSGSGSGQDYTLTISSLQPEDFATYYCLQYDEFPYTFGGGTKLEIK	–	binds	binds	–
Hu002c-10 (antibody, V domains shown, Humanized) VH: QVQLVQSGAEVKKPGASVKVSCKASGYTLTSYWMHWVRQAPGQGLEWIGEINPSQGRSNYNEKFKSKVTLTVDRSTSTVYMELSSLRSEDTAVYYCARRGVSGNYFDYWGQGTLVTVSS VL: DIQMTQSPSSLSASVGDRVTITCKASQDINTYLSWFQQKPGKAPKSLIYRSNILVSGVPSRFSGSGSGQDYTLTISSLQPEDFATYYCLQYDEFPYTFGQGTKLEIK	–	binds	binds	–
Hu002c-11 (antibody, V domains shown, Humanized) VH: QVQLVQSGAEVKKPGASVKVSCKASGYTLTSYWMHWVRQAPGQGLEWIGEINPSQGRSNYNEKFKSKVTLTVDRSTSTVYMELSSLRSEDTAVYYCARRGVSGNYFDYWGQGTLVTVSS VL: DIQMTQSPSSLSASVGDRVTITCKASQDINTYLSWFQQKPGKSPKSLIYRSNILVSGVPSRFSGSGSGQDYTLTISSLQPEDFATYYCLQYDEFPYTFGGGTKLEIK	–	binds	binds	–
Hu002c-14 (antibody, V domains shown, Humanized) VH: QVQLVQSGAEVKKPGASVKVSCKASGYTLTSYWMHWVKKAPGQGLEWIGEINPSQGRSNYNEKFKSKVTLTVDRSTSTVYMELSSLRSEDTAVYYCARRGVSGNYFDYWGQGTLVTVSS VL: DIQMTQSPSSLSASVGDRVTITCKASQDINTYLSWFQQKPGKAPKSLIYRSNILVSGVPSRFSGSGSGQDYTLTISSLQPEDFATYYCLQYDEFPYTFGQGTKLEIK	–	binds	binds	–
Hu002c-15 (antibody, V domains shown, Humanized) VH: QVQLVQSGAEVKKPGASVKVSCKASGYTLTSYWMHWVKKAPGQGLEWIGEINPSQGRSNYNEKFKSKVTLTVDRSTSTVYMELSSLRSEDTAVYYCARRGVSGNYFDYWGQGTLVTVSS VL: DIQMTQSPSSLSASVGDRVTITCKASQDINTYLSWFQQKPGKSPKSLIYRSNILVSGVPSRFSGSGSGQDYTLTISSLQPEDFATYYCLQYDEFPYTFGGGTKLEIK	–	binds	binds	–
Hu002c-8 (antibody, V domains shown, Humanized) VH: QVQLVQSGAEVKKPGASVKVSCKASGYTLTSYWMHWVRQAPGQGLEWIGEINPSQGRSNYNEKFKSRVTLTVDRSTSTVYMELSSLRSEDTAVYYCARRGVSGNYFDYWGQGTLVTVSS VL: DIQMTQSPSSLSASVGDRVTITCKASQDINTYLSWFQQKPGKSPKSLIYRSNILVSGVPSRFSGSGSGQDYTLTISSLQPEDFAIYYCLQYDEFPYTFGGGTKLEI	–	binds	binds	–
Hu002c-4 (antibody, V domains shown, Humanized) VH: QVQLVQSGAEVKKPGASVKVSCKASGYTLTSYWMHWVRQAPGQGLEWMGEINPSQGRSNYNEKFKSRVTMTRDTSTSTVYMELSSLRSEDTAVYYCARRGVSGNYFDYWGQGTLVTVSS VL: DIQMTQSPSSLSASVGDRVTITCKASQDINTYLSWFQQKPGKSPKSLIYRSNILVSGVPSRFSGSGSGQDYTLTISSLQPEDFAIYYCLQYDEFPYTFGGGTKLEI	–	binds	binds	–
Hu002c-12 (antibody, V domains shown, Humanized) VH: QVQLVQSGAEVKKPGASVKVSCKASGYTLTSYWMHWVRQAPGQGLEWIGEINPSQGRSNYNEKFKSKVTLTVDRSTSTVYMELSSLRSEDTAVYYCARRGVSGNYFDYWGQGTLVTVSS VL: DIQMTQSPSSLSASVGDRVTITCKASQDINTYLSWFQQKPGKSPKSLIYRSNILVSGVPSRFSGSGSGQDYTLTISSLQPEDFAIYYCLQYDEFPYTFGGGTKLEI	–	binds	binds	–
Hu002c-16 (antibody, V domains shown, Humanized) VH: QVQLVQSGAEVKKPGASVKVSCKASGYTLTSYWMHWVKKAPGQGLEWIGEINPSQGRSNYNEKFKSKVTLTVDRSTSTVYMELSSLRSEDTAVYYCARRGVSGNYFDYWGQGTLVTVSS VL: DIQMTQSPSSLSASVGDRVTITCKASQDINTYLSWFQQKPGKSPKSLIYRSNILVSGVPSRFSGSGSGQDYTLTISSLQPEDFAIYYCLQYDEFPYTFGGGTKLEI	–	binds	binds	–
mAb002c-VH-NA (antibody, V domains shown) VH: QVQLQQPGAELVKPGASVRLSCKASGYTLTSYWMHWVKKRPGQGLEWIGEINPSNARSNYNEKFKSKATLTVDRSSSTVYMQLGSLTSEDSAVYYCARRGVSGNYFDYWGQGTTLTVSS VL: DIKMTQSPSSMYASLGERVTMTCKASQDINTYLSWFQQKPGKSPKTLIYRSNILVDGVPSRFSGSRSGQDYYLTITSLEYEDMGIYYCLQYDEFPYTFGGGTKLELK	–	–	–	0.43
mAb002c-VH-QG (antibody, V domains shown) VH: QVQLQQPGAELVKPGASVRLSCKASGYTLTSYWMHWVKKRPGQGLEWIGEINPSQGRSNYNEKFKSKATLTVDRSSSTVYMQLGSLTSEDSAVYYCARRGVSGNYFDYWGQGTTLTVSS VL: DIKMTQSPSSMYASLGERVTMTCKASQDINTYLSWFQQKPGKSPKTLIYRSNILVDGVPSRFSGSRSGQDYYLTITSLEYEDMGIYYCLQYDEFPYTFGGGTKLELK	–	–	–	0.43
mAb002c-VK-SG (antibody, V domains shown) VH: QVQLQQPGAELVKPGASVRLSCKASGYTLTSYWMHWVKKRPGQGLEWIGEINPSNGRSNYNEKFKSKATLTVDRSSSTVYMQLGSLTSEDSAVYYCARRGVSGNYFDYWGQGTTLTVSS VL: DIKMTQSPSSMYASLGERVTMTCKASQDINTYLSWFQQKPGKSPKTLIYRSNILVSGVPSRFSGSRSGQDYYLTITSLEYEDMGIYYCLQYDEFPYTFGGGTKLELK	–	–	–	0.46
